In PMC9230529:

Biological target: CD16a ectodomain (Human CD16a, amino acids Met1-Gln208, C-terminal His-tag) (human)
Assay: BLI

SARS-CoV-2 ORF8 (aa16-121), His Tag (from UniProt P0DTC8 16-121) (natural protein)
Kd: 0.0389 µM
